{
  "source": "patent US20230248820A1",
  "molecular_target": "HCMV pentameric complex gH/gL/pUL128/pUL130/pUL131A (Pentamer), wild type, Merlin strain (HCMV Merlin strain) (UniProt Q6SW67)",
  "assay": "method not stated",
  "data": [
    {"substance": "8I21 with HCDR3 Trp105 mutated to alanine (antibody)", "values": [
      {"measurement": "fold decrease in binding affinity against 8I21 without the mutation", "result": "> 150", "unit": "fold"}
    ]}
  ]
}
